Drawing on PMC4545359, this text covers binding for one sequence.

The target of this data set is T1, CRP-His6 (cAMP receptor protein) (Vibrio cholerae C6706) (UniProt O34015).
T1 sequence: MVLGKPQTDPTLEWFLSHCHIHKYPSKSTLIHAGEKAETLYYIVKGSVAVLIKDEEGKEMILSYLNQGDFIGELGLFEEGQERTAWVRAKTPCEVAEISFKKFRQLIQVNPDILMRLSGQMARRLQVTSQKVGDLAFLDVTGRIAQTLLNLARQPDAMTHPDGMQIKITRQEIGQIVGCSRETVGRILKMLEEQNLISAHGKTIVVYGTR
Briefly: EMSA. The settings on record: 10 mM Tris pH 7.5, 1 mM EDTA, 100 mM KCl, 0.1 mM DTT, 5% glycerol, 0.01 mg/ml BSA; CRP 11 ng/ul, promoter DNA 2.5 ng/ul, 75 ng NS DNA; 1 h at room temperature …. A general note: Mobility shift assays separate free from complexed probe on a gel.

On to “CAGTGGATTAGCGTATGGACACGGCTACGTTTCCGCAGTGGAAAACGGTGTCGCCGAAGGACGTGTCACCTTGTGTAAATTTGCCGCTAACGGCACTGGAAAAAAAAACACTCACTGTGGCGCGATTCAATAC (double strand) [non-specific control 133 bp fragment (NS)]”, for which the binding entry is recorded as “no binding”.
